Patent US20230049752A1 (University of California, published 2023)
Positions count from the first letter of the chain named.

T1: mouse Claudin-6 (CLDN6) (mouse, UniProt Q9Z262 1-219)
T1 construct: whole, on cells; GFP fusion on engineered HEK293T cells; also called Mouse CLDN6; murine CLDN6
T1 sequence (looked up): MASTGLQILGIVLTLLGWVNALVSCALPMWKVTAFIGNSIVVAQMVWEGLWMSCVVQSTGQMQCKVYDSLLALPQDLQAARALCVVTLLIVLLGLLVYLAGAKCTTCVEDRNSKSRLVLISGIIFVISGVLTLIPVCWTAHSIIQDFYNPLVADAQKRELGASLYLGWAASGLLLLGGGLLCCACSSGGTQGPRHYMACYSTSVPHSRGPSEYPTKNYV

B1: AB3-3 (antibody, V domains shown)
VH: EVQLLESGGGLVQPGGSMRLSCAASGFTFSNYWMNWVRQAPGKGLEWVAQIRLKSDNYATHYADSVKGRFTISRDDSKNTVYLQMNSLRAEDTGVYYCNDGPPSGCWGQGTLLTVSS
VL: DIQMTQSPSSLSASVGDRVTITCRISENIYSYLAWYQQKPGKAPKLLVYNAKILVEGVPSRFSGSGSGTDFTLTISSLQPEDFGTYYCQHHYTVPWTFGQGTKLEIK
notes: humanized
B2: AB3-5 (antibody, V domains shown)
VH: B1 VH with C106Y
VL: B1 VL
notes: humanized
B3: AB3-2 (antibody, V domains shown)
VH: B1 VH
VL: B1 VL with V48I, G84A
notes: humanized
B4: AB3-4 (antibody, V domains shown)
VH: B1 VH with C106Y
VL: B1 VL with V48I, G84A
notes: humanized
B5: AB1-Chim (antibody, V domains shown)
VH: QVQLQQSAAELARPGASVKMSCKASGYTFTTYTMHWVKQRPGQGLEWIGFINPSSGYTDYNQKFKDRTTLTADKSSSTVYMQLSSLTSEDSAVYYCANGDYYVAYWGQGTLVTVSA
VL: QIVLTQSPAIMSASLGERVTMTCTASSSVSSTYFHWYQQKPGSSPKLWIYSTSNLASGVPRRFSGSASGTSYSLTISSMEAEDAATYYCHQYHRSPLTFGAGTKLELK
B6: AB18-chim (antibody, V domains shown)
VH: QVQLKQSGPELEKPGASVKISCKASGYSFTGYNMNWVKQSNGKSLEWIGNIDPYYGGSTYNQKFTGKATLTVDKSSSTAYMQLKSLTSEDSAVYYCARERSGYVFSAMDYWGQGTSVTVSS
VL: NIMMTQSPSSLAVSAGEKVTMSCKSSQSVLFSSNQKNYLAWYQQKPGQSPRLLIYWASTRESGVPDRFTGSGSGTDFTLTISNVQAEDLAVYYCHQYLSSRTFGAGTKLELK
B7: AB9-3 (antibody, V domains shown)
VH: QVQLVQSGAEVKKPGASVKMSCKASGYRFTDYNMHWVRQAPGQGLEWIGYINPNNGGTNYAQKFQGRATLTVDTSTSTAYMELSSLRSEDTAVYYCARDYLYFFDCWGQGTLLTVSS
VL: DIQMTQSPSSLSASVGDRVTITCLASQTIGTWLAWYQQKPGKAPKLLIYAAASLADGVPSRFSGSGSGTDFTFTISSLQPEDFVTYYCQQLYSIPRTFGQGTKLEIK
B8: AB3-chim (antibody, V domains shown)
VH: EVKLEESGGGLVQPGGSMKLSCVASGFTFSNYWMNWVRQSPEKGLEWVAQIRLKSDNYATHYAESVKGRFTISRDDSKRSVYLQMNNLRAEDTGTYYCNDGPPSGCWGQGTTLIVSS
VL: DIQMTQSPASLSASVGETVTITCRISENIYSYLAWYQQKQGKSPQLLVYNAKILVEGVPSRFSGSGSGTQFSLKINSLQPEDFGNYYCQHHYTVPWTFGGGTKLEIK
B9: AB9-chim (antibody, V domains shown)
VH: EVQLQQSGPELVKPGASVKMSCKASGYRFTDYNMHWVKQSHGKSLEWIGYINPNNGGTNYNQNFKGKATLTVNKSSSTAYMELRSLTSEDSAAYYCARDYLYFFDCWGQGTTLTVSS
VL: DIQMTQSPASQSASLGESVTITCLASQTIGTWLAWYQQKPGKSPQLLIYAAASLADGVPSRFSGSGSGTRFSFKISSLQAEDFVSYYCQQLYSIPRTFGGGTKLEIK
B10: AB18-4 (antibody, V domains shown)
VH: QVQLVQSGAEVKKPGASVKVSCKASGYSFTGYNMNWVRQAPGQGLEWMGNIDPYYGGSTYAQKFQGRVTMTVDTSTSTVYMELSSLRSEDTAVYYCARERSGYVFSAMDYWGQGTLVTVSS
VL: DIVMTQSPDSLAVSLGERVTMNCKSSQSVLFSSNQKNYLAWYQQKPGQPPKLLIYWASTRESGVPDRFSGSGSGTDFTLTISSVQAEDVAVYYCHQYLSSRTFGQGTKLEIK
B11: AB18-6 (antibody, V domains shown)
VH: B10 VH with V20I, M48I, V68A, M70L, V79A
VL: B10 VL
B12: AB1-7 (antibody, V domains shown)
VH: QVQLVQSGAEVKKPGASVKMSCKASGYTFTTYTMHWVRQAPGQGLEWIGFINPSSGYTDYAQKFQGRVTLTADTSTSTVYMELSSLRSEDTAVYYCANGDYYVAYWGQGTLVTVSS
VL: DIQLTQSPSSLSASVGDRVTMTCTASSSVSSTYFHWYQQKPGKAPKLLIYSTSNLASGVPSRFSGSGSGTDYTLTISSMQPEDAATYYCHQYHRSPLTFGQGTKLEIK
notes: humanized
B13: AB1-4 (antibody, V domains shown)
VH: B12 VH with M20V, I48M, L70M
VL: B12 VL
notes: humanized
B14: AB1-3 (antibody, V domains shown)
VH: B12 VH with M20V, I48M, L70M
VL: B12 VL with L4M, M21I, M79L, A84F
notes: humanized
B15: AB1-8 (antibody, V domains shown)
VH: B12 VH
VL: B12 VL with L48W
notes: humanized
B16: AB1-11 (antibody, V domains shown)
VH: B12 VH with T74K
VL: B12 VL with L48W
notes: humanized; also called humanized AB1-11; HU-11
B17: AB1-5 (antibody, V domains shown)
VH: B12 VH with M20V, I48M, L70M
VL: B12 VL with L48W
notes: humanized

target: human Claudin-6 (CLDN6) (human) (UniProt P56747); assay: FACS, 1.5 ug Ab, ARK2 cells (2nd Ab only 1351.21)

| FACS fluorescence | Binder |
| --- | --- |
| 54900 | B1 |
| 2910 | B2 |
| 33600 | B3 |
| 1460 | B4 |
| 51900 | B5 |
| 9150 | B6 |
| 1470 | B7 |
| 29100 | B8 |
| 4490 | B9 |
| 1380 | B10 |
| 1940 | B11 |
| 11200 | B12 |
| 10000 | B13 |
| 10800 | B14 |
| 17600 | B15 |
| 97700 | B16 |
| 22400 | B17 |

target: T1, mouse Claudin-6 (CLDN6); assay: FACS, 293T clone expressing mouse CLDN6, dose not stated (2nd Ab only 1061.72)
Description: Two doses (1.5 μg or 0.3 μg) of the humanized antibodies were tested for binding to either human CLDN6 or murine CLDN6 which proteins were expressed by engineered 293T clones.

| FACS fluorescence | Binder |
| --- | --- |
| 23000 | B1 |
| 783 | B2 |
| 31700 | B3 |
| 1520 | B4 |
| 514000 | B5 |
| 67900 | B8 |
| 99700 | B12 |
| 75900 | B13 |
| 89300 | B14 |
| 122000 | B15 |
| 101000 | B16 |
| 128000 | B17 |

target: human Claudin-6 (CLDN6) (human) (UniProt P56747); assay: FACS, limiting dilution, OV90 cells

| FACS signal at 0.32 nM | FACS signal at 1.6 nM | FACS signal at 8 nM | FACS signal at 40 nM | FACS signal at 200 nM | FACS signal at 1000 nM | Binder |
| --- | --- | --- | --- | --- | --- | --- |
| 452 | 753 | 2150 | 7820 | 32500 | 72100 | B16 |

target: human Claudin-6 (CLDN6) (human) (UniProt P56747); assay: FACS, 1.5 ug Ab, 293T clone expressing human CLDN6 (2nd Ab only 768.07)

| FACS fluorescence | Binder |
| --- | --- |
| 340000 | B1 |
| 48600 | B2 |
| 396000 | B3 |
| 55800 | B4 |
| 364000 | B5 |
| 135000 | B6 |
| 24600 | B7 |
| 459000 | B8 |
| 72000 | B9 |
| 54400 | B10 |
| 58500 | B11 |
| 207000 | B12 |
| 197000 | B13 |
| 142000 | B14 |
| 210000 | B15 |
| 113000 | B16 |
| 213000 | B17 |

target: human Claudin-6 (CLDN6) (human) (UniProt P56747); assay: FACS, 0.3 ug Ab, 293T clone expressing human CLDN6 (2nd Ab only 768.07)

| FACS fluorescence | Binder |
| --- | --- |
| 251000 | B1 |
| 13300 | B2 |
| 309000 | B3 |
| 11600 | B4 |
| 312000 | B5 |
| 73800 | B6 |
| 9500 | B7 |
| 267000 | B8 |
| 46700 | B9 |
| 32400 | B10 |
| 26900 | B11 |
| 79200 | B12 |
| 102000 | B13 |
| 142000 | B14 |
| 98800 | B15 |
| 64900 | B16 |
| 138000 | B17 |

target: human Claudin-6 (CLDN6) (human) (UniProt P56747); assay: FACS, limiting dilution, UMUC4 cells

| FACS signal at 0.32 nM | FACS signal at 1.6 nM | FACS signal at 8 nM | FACS signal at 40 nM | FACS signal at 200 nM | Binder |
| --- | --- | --- | --- | --- | --- |
| 618 | 839 | 1610 | 4160 | 25700 | B16 |

target: human Claudin-6 (CLDN6) (human) (UniProt P56747); assay: FACS, 0.3 ug Ab, ARK2 cells (2nd Ab only 1351.21)

| FACS fluorescence | Binder |
| --- | --- |
| 1160 | B1 |
| 1280 | B2 |
| 14700 | B3 |
| 1320 | B4 |
| 58800 | B5 |
| 3440 | B6 |
| 1140 | B7 |
| 17100 | B8 |
| 3510 | B9 |
| 1130 | B10 |
| 1390 | B11 |
| 4440 | B12 |
| 3640 | B13 |
| 2830 | B14 |
| 5810 | B15 |
| 53900 | B16 |
| 7490 | B17 |

target: human Claudin-6 (CLDN6) (human) (UniProt P56747); assay: FACS, limiting dilution, ARK2 cells

| FACS signal at 0.32 nM | FACS signal at 1.6 nM | FACS signal at 8 nM | FACS signal at 40 nM | FACS signal at 200 nM | FACS signal at 1000 nM | Binder |
| --- | --- | --- | --- | --- | --- | --- |
| 377 | 639 | 2290 | 3460 | 16400 | 50500 | B16 |

target: human Claudin-6 (CLDN6) (human) (UniProt P56747); assay: FACS, 1.5 ug Ab, OVCA429 cells (2nd Ab only 885.77)

| FACS fluorescence | Binder |
| --- | --- |
| 88700 | B1 |
| 2950 | B2 |
| 85900 | B3 |
| 2960 | B4 |
| 177000 | B5 |
| 25500 | B6 |
| 1260 | B7 |
| 138000 | B8 |
| 3570 | B9 |
| 3220 | B10 |
| 6750 | B11 |
| 44700 | B12 |
| 34600 | B13 |
| 27500 | B14 |
| 66000 | B15 |
| 54300 | B17 |
